Assays:
[1] = molecular target: recombinant DJ-1 C53A mutant (human) (UniProt Q99497); assay: non-reducing SDS-PAGE
[2] = molecular target: recombinant DJ-1 C46A mutant (human) (UniProt Q99497); assay: non-reducing SDS-PAGE

Substance | stoichiometry N [1] | stoichiometry N [2]
recombinant DJ-1 C53A mutant (from UniProt Q99497 1-189) (natural protein) | 3 | –
recombinant DJ-1 C46A mutant (from UniProt Q99497 1-189) (natural protein) | – | 3
